We go through one substance from article PMC4509971.

The test deals with RNH domain of HIV-1 reverse transcriptase (RT residues 427-560) with E438N and T477A (HIV-1). In words: SEC-MALS. Background: Size exclusion chromatography separates by hydrodynamic size, large species first.

The substance “RNH domain of HIV-1 reverse transcriptase (RT residues 427-560) with E438N and T477A (domain or fragment)” had a stoichiometry N of 2.

For orientation: stoichiometry N means a count of units in the complex or per binding partner.
